System: PBMCs from LTBI donors (IFN-γ production)
Format: cell-based, human
Details: ex vivo IFN-γ ELISPOT; for Resp. freq.: fraction of 28 LTBI donors responding to epitopes of the antigen; for Total SFC: total spot-forming cells, LTBI donors

| Molecule | Resp. freq. | Total SFC |
| --- | --- | --- |
| Rv0297: MTB protein, novel CD4 T cell antigen; PE/PPE (protein, listed as Mycobacterium tuberculosis) MSFVIAQPEMIAAAAGELASIRSAINAANAAAAAQTTGVMSAAADEVSTAVAALFSSHAQAYQAASAQAAAFHAQVVRTLTVDAGAYASAEAANAGPNMLAAVNAPAQALLGRPLIGNGANGAPGTGQAGGDGGLLFGNGGNGGSGAPGQAGGAGGAAGFFGNGGNGGDGGAGANGGAGGTAGWFFGFGGNGGAGGIGVAGINGGLGGAGGDGGNAGFFGNGGNGGMGGAGAAGVNAVNPGLATPVTPAANGGNGLNLVGVPGTAGGGADGANGSAIGQAGGAGGDGGNASTSGGIGIAQTGGAGGAGGAGGDGAPGGNGGNGGSVEHTGATGSSASGGNGATGGNGGVGAPGGAGGNGGHVSGGSVNTAGAGGKGGNGGTGGAGGPGGHGGSVLSGPVGDSGNGGAGGDGGAGVSATDIAGTGGRGGNGGHGGLWIGNGGDGGAGGVGGVGGAGAAGAIGGHGGDGGSVNTPIGGSEAGDGGKGGLGGDGGGRGIFGQFGAGGAGGAGGVGGAGGAGGTGGGGGNGGAIFNAGTPGAAGTGGDGGVGGTGAAGGKGGAGGSGGVNGATGADGAKGLDGATGGKGNNGNPG | 14% | 154 SFC |
| Rv3135: MTB protein, novel CD4 T cell antigen; PE/PPE (protein, listed as Mycobacterium tuberculosis) MVLGFSWLPPEINSARMFAGAGSGPLFAAASAWEGLAADLWASASSFESVLAALTTGPWTGPASMSMAAAASPYVGWLSTVASQAQLAAIQARAAATAFEAALAATVHPTAVTANRVSLASLIAANVLGQNTPAIAATEFDYLEMWAQDVAAMVGYHAGAKSVAATLAPFSLPPVSLAGLAAQVGTQVAGMATTASAAVTPVVEGAMASVPTVMSGMQSLVSQLPLQHASMLFLPVRILTSPITTLASMARESATRLGPPAGGLAAANTPNPSGAAIPAFKPLGGRELGAGMSAGLGQAQLVGSMSVPPTWQGSIPISMASSAMSGLGVPPNPVALTQAAGAAGGGMPMMLMPMSISGAGAGMPGGLMDRDGAGWHVTQARLTVIPRTGVG | 18% | 317 SFC |
| Rv3012c: MTB protein, novel CD4 T cell antigen; Information pathways (protein, listed as Mycobacterium tuberculosis) MSQISRDEVAHLARLARLALTETELDSFAGQLDAILTHVSQIQAVDVTGVQATDNPLKDVNVTRPDETVPCLTQRQVLDQAPDAVDGRFAVPQILGDEQ | 14% | 233 SFC |
| Rv0293c: MTB protein, novel CD4 T cell antigen; Conserved hypotheticals, Island 1 (protein, listed as Mycobacterium tuberculosis) MSGTFTADAIGPPVPIPDVPGADAGAEGLPSRSVLSARQRILVESSAIADVALRTAVASVLSATVTPAVVANALRHVNEGSERSNLNFYAELAAAHDPAKSFPAPTELPKVTSRPASPLTEWVARGTVDNIAFASGFRAINPTMRQRWSALTANNIVHAQHWRHRDGPRPTLCVIHGFMGSSYLLNGLFFSLPWYYRSGYDVLLYTLPFHGQRAEKFSPFSGFGYFTSGLSGFAEAMAQAVYDFRSIVDYLRHIGVDRIALTGISLGGYTSALLASVESRLEAVIPNCPVVMPAKLFDEWFPANKLVKLGLRLTNISRDELIAGLAYHGPLNYRPLLPKDRRMIITGLGDRMAPPEHAVTLWKQWDRCALHWFPGSHLLHVSQLDYLRRMTVFLQGLMFD | 14% | 1073 SFC |
| Rv0292: MTB protein, novel CD4 T cell antigen; Cell wall and cell processes, Island 1, Esx-3 (protein, listed as Mycobacterium tuberculosis) MNPIPSWPGRGRVTLVLLAVVPVALAYPWQSTRDYVLLGVAAAVVIGLFGFWRGLYFTTIARRGLAILRRRRRIAEPATCTRTTVLVWVGPPASDTNVLPLTLIARYLDRYGIRADTIRITSRVTASGDCRTWVGLTVVADDNLAALQARSARIPLQETAQVAARRLADHLREIGWEAGTAAPDEIPALVAADSRETWRGMRHTDSDYVAAYRVSANAELPDTLPAIRSRPAQETWIALEIAYAAGSSTRYTVAAACALRTDWRPGGTAPVAGLLPQHGNHVPALTALDPRSTRRLDGHTDAPADLLTRLHWPTPTAGAHRAPLTNAVSRT | 14% | 708 SFC |
| Rv2874: MTB protein, novel CD4 T cell antigen; Intermediary metabolism and respiration (protein, listed as Mycobacterium tuberculosis) MVESRRAAAAASAYASRCGIAPATSQRSLATPPTISVPSGEGRCRCHVARGAGRDPRRRLRRRRWCGRCGYHSHLTGGEFDVNRLCQQRSRERSCQLVAVPADPRPKRQRITDVLTLALVGFLGGLITGISPCILPVLPVIFFSGAQSVDAAQVAKPEGAVAVRRKRALSATLRPYRVIGGLVLSFGMVTLLGSALLSVLHLPQDAIRWAALVALVAIGAGLIFPRFEQLLEKPFSRIPQKQIVTRSNGFGLGLALGVLYVPCAGPILAAIVVAGATATIGLGTVVLTATFALGAALPLLFFALAGQRIAERVGAFRRRQREIRIATGSVTILLAVALVFDLPAALQRAIPDYTASLQQQISTGTEIREQLNLGGIVNAQNAQLSNCSDGAAQLESCGTAPDLKGITGWLNTPGNKPIDLKSLRGKVVLIDFWAYSCINCQRAIPHVVGWYQAYKDSGLAVIGVHTPEYAFEKVPGNVAKGAANLGISYPIALDNNYATWTNYRNRYWPAEYLIDATGTVRHIKFGEGDYNVTETLVRQLLNDAKPGVKLPQPSSTTTPDLTPRAALTPETYFGVGKVVNYGGGGAYDEGSAVFDYPPSLAANSFALRGRWALDYQGATSDGNDAAIKLNYHAKDVYIVVGGTGTLTVVRDGKPATLPISGPPTTHQVVAGYRLASETLEVRPSKGLQVFSFTYG | 18% | 798 SFC |
| Rv0299: MTB protein, novel CD4 T cell antigen; Conserved hypotheticals (protein, listed as Mycobacterium tuberculosis) MIAPGDIAPRRDSEHELYVAVLSNALHRAADTGRVITCPFIPGRVPEDLLAMVVAVEQPNGTLLPELVQWLHVAALGAPLGNAGVAALREAASVVTALLC | 14% | 467 SFC |
| Rv3025c: MTB protein, novel CD4 T cell antigen; Intermediary metabolism and respiration, Island 2 (protein, listed as Mycobacterium tuberculosis) MAYLDHAATTPMHPAAIEAMAAVQRTIGNASSLHTSGRSARRRIEEARELIADKLGARPSEVIFTAGGTESDNLAVKGIYWARRDAEPHRRRIVTTEVEHHAVLDSVNWLVEHEGAHVTWLPTAADGSVSATALREALQSHDDVALVSVMWANNEVGTILPIAEMSVVAMEFGVPMHSDAIQAVGQLPLDFGASGLSAMSVAGHKFGGPPGVGALLLRRDVTCVPLMHGGGQERDIRSGTPDVASAVGMATAAQIAVDGLEENSARLRLLRDRLVEGVLAEIDDVCLNGADDPMRLAGNAHFTFRGCEGDALLMLLDANGIECSTGSACTAGVAQPSHVLIAMGVDAASARGSLRLSLGHTSVEADVDAALEVLPGAVARARRAALAAAGASR | 14% | 423 SFC |
| Rv0124: MTB protein, novel CD4 T cell antigen; PE/PPE (protein, listed as Mycobacterium tuberculosis) MSFVSVAPEIVVAAATDLAGIGSAISAANAAAAAPTTAVLAAGADEVSAAIAALSGHAQAYQALSAQAAAFHQQFVQTLAGGAGAYAAAEAQVEQQLLAAINAPTQALLGRPLIGNGADGAPGTGQAGGAGGILYGNGGNGGSGAAGQAGGAGGPAGLIGHGGSGGAGGSGAAGGAGGHGGWLWGNGGVGGSGGAGVGAGVAGGHGGAGGAAGLWGAGGGGGNGGNGADANIVSGGDGGLGGAGGGGGWLYGDGGAGGHGGQGAIGLGGGAGGDGGQGGAGRGLWGTGGAGGHGGQGGGTGGPPLPGQAGMGAAGGAGGLIGNGGAGGDGGVGASGGVAGVGGAGGNAMLIGHGGAGGAGGDSSFANGAAGGAGGAGGHLFGNGGSGGHGGAVTAGNTGIGGAGGVGGDARLIGHGGAGGAGGDRAGALVGRDGGPGGNGGAGGQLYGNGGDGAPGTGGTLQAAVSGLVTALFGAPGQPGDTGQPG | 14% | 177 SFC |
| Rv3876: MTB protein, novel CD4 T cell antigen; Cell wall and cell processes, Island 3, Esx-1 (protein, listed as Mycobacterium tuberculosis) MAADYDKLFRPHEGMEAPDDMAAQPFFDPSASFPPAPASANLPKPNGQTPPPTSDDLSERFVSAPPPPPPPPPPPPPTPMPIAAGEPPSPEPAASKPPTPPMPIAGPEPAPPKPPTPPMPIAGPEPAPPKPPTPPMPIAGPAPTPTESQLAPPRPPTPQTPTGAPQQPESPAPHVPSHGPHQPRRTAPAPPWAKMPIGEPPPAPSRPSASPAEPPTRPAPQHSRRARRGHRYRTDTERNVGKVATGPSIQARLRAEEASGAQLAPGTEPSPAPLGQPRSYLAPPTRPAPTEPPPSPSPQRNSGRRAERRVHPDLAAQHAAAQPDSITAATTGGRRRKRAAPDLDATQKSLRPAAKGPKVKKVKPQKPKATKPPKVVSQRGWRHWVHALTRINLGLSPDEKYELDLHARVRRNPRGSYQIAVVGLKGGAGKTTLTAALGSTLAQVRADRILALDADPGAGNLADRVGRQSGATIADVLAEKELSHYNDIRAHTSVNAVNLEVLPAPEYSSAQRALSDADWHFIADPASRFYNLVLADCGAGFFDPLTRGVLSTVSGVVVVASVSIDGAQQASVALDWLRNNGYQDLASRACVVINHIMPGEPNVAVKDLVRHFEQQVQPGRVVVMPWDRHIAAGTEISLDLLDPIYKRKVLELAAALSDDFERAGRR | 18% | 1323 SFC |
| Rv0291: MTB protein, novel CD4 T cell antigen; Intermediary metabolism and respiration, Island 1 (protein, listed as Mycobacterium tuberculosis) MIRAAFACLAATVVVAGWWTPPAWAIGPPVVDAAAQPPSGDPGPVAPMEQRGACSVSGVIPGTDAGVPTPSQTMLNLPAAWQFSRGEGQLVAIIDTGVQPGPRLPNVDAGGDFVESTDGLTDCDGHGTLVAGIVAGQPGNDGFSGVAPAARLLSIRAMSTKFSPRTSGGDPQLAQATLDVAVLAGAIVHAADLGAKVINVSTITCLPADRMVDQAALGAAIRYAAVDKDAVIVAAAGNTGASGSVSASCDSNPLTDLSRPDDPRNWAGVTSVSIPSWWQPYVLSVASLTSAGQPSKFSMPGPWVGIAAPGENIASVSNSGDGALANGLPDAHQKLVALSGTSYAAGYVSGVAALVRSRYPGLNATEVVRRLTATAHRGARESSNIVGAGNLDAVAALTWQLPAEPGGGAAPAKPVADPPVPAPKDTTPRNVAFAGAAALSVLVGLTAATVAIARRRREPTE | 14% | 1153 SFC |

— patent US10703784B2, “Antigens and epitopes derived from Mycobacterium tuberculosis” (priority 2011, dated 2020)
